Results from patent US20240058465A1 (SUTRO BIOPHARMA, published 2024).
Residue numbers refer to the chain shown, from its start.

B1: SRP2193-A01 (antibody, IgG1, V domains shown)
VH: EVQLVESGGGLVQPGGSLRLSCAASGFNINDHYIHWVRQAPGKGLEWVGAIDPTSGSTVFADSVKGRFTISADTSKNTAYLQMNSLRAEDTAVYYCARSRWFRVLWSYVFDYWGQGTLVTVSS
VL: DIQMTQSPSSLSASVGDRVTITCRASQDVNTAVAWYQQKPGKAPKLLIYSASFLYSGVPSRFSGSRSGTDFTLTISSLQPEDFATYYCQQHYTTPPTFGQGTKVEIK
notes: His/FLAG-tagged IgG1, cell-free
B2: SRP2193-A04 (antibody, IgG1, V domains shown)
VH: B1 VH with N30I, D31S, H32Y, T54N, V59L, F60L, F110Y
VL: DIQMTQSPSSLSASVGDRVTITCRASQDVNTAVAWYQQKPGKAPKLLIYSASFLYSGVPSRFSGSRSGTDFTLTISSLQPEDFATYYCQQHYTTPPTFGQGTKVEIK
notes: as for B1
B3: SRP2193-A08 (antibody, IgG1, V domains shown)
VH: B1 VH with N30I, H32S, T54N, S55A, F60Y, K65R, L81I
VL: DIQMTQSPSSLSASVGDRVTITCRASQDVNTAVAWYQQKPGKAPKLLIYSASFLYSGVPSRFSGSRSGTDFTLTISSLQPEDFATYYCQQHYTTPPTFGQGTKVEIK
notes: His/FLAG-tagged IgG1, cell-free; also called Antibody 112
B4: SRP2193-A02 (antibody, IgG1, V domains shown)
VH: B1 VH with N30H, D31A, H32S, T54K, V59Y, F60Y, F102L, V109I
VL: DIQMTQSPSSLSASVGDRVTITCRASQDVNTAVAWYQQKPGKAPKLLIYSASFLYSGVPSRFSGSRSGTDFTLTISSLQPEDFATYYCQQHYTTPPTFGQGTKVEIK
notes: His/FLAG-tagged IgG1, cell-free; also called Antibody 83
B5: SRP2193-A06 (antibody, IgG1, V domains shown)
VH: B1 VH with D31A, H32Y, G49D, T54D, V59H, F60N, V109I
VL: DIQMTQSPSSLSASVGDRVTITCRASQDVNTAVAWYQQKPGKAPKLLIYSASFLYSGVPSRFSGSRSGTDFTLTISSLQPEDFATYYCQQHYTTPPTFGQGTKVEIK
notes: His/FLAG-tagged IgG1, cell-free; also called Antibody 85
B6: SRP2193-A10 (antibody, IgG1, V domains shown)
VH: B1 VH with N30G, H32Y, T54K, S57Y, F60Y
VL: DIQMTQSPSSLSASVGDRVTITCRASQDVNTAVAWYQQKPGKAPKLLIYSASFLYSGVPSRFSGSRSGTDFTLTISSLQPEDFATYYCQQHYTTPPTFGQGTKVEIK
notes: His/FLAG-tagged IgG1, cell-free; also called Antibody 95
B7: SRP2193-A03 (antibody, IgG1, V domains shown)
VH: B1 VH with N30A, D31N, H32Y, Y33H, T54K, F60H, F102S, S107T
VL: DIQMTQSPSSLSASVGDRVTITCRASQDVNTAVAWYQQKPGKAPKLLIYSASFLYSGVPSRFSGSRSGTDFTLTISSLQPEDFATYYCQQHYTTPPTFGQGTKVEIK
notes: as for B1
B8: SRP2193-A05 (antibody, IgG1, V domains shown)
VH: B1 VH with N30K, D31G, H32Y, G49S, A50V, T54N, V59I, F110L
VL: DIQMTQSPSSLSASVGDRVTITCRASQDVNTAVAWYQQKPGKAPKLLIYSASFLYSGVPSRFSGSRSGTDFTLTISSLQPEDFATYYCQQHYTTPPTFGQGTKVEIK
notes: His/FLAG-tagged IgG1, cell-free; also called Antibody 116
B9: SRP2193-A11 (antibody, IgG1, V domains shown)
VH: B1 VH with N30D, D31A, H32Y, T54K, F60Y, I70T
VL: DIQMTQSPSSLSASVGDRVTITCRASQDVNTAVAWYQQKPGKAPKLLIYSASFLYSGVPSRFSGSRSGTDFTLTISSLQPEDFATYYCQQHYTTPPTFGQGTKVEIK
notes: His/FLAG-tagged IgG1, cell-free; also called Antibody 110
B10: SRP2193-A07 (antibody, IgG1, V domains shown)
VH: B1 VH with D31A, H32S, Y33D, E46G, T54N, S55T, S57T, V59N, F60Y
VL: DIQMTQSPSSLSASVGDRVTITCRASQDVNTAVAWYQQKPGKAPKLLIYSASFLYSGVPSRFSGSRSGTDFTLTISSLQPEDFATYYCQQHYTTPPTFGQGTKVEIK
notes: His/FLAG-tagged IgG1, cell-free; also called Antibody 97
B11: SRP2193-A09 (antibody, IgG1, V domains shown)
VH: B1 VH with N30G, D31K, Y33H, A50V, T54K, S55G, F60Y, F102S
VL: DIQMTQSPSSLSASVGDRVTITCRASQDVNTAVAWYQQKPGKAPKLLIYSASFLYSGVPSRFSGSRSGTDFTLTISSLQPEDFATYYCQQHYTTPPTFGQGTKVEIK
notes: His/FLAG-tagged IgG1, cell-free; also called Antibody 94
B12: 1944-A07 HC with Trastuzumab LC (antibody, IgG1, V domains shown)
VH: EVQLVESGGGLVQPGGSLRLSCAASGFNITGYYIHWVRQAPGKGLEWVGYISPNSGSTYYADSVKGRFTISADTSKNTAYLQMNSLRAEDTAVYYCARDSRRYVRPFDYWGQGTLVTVSS
VL: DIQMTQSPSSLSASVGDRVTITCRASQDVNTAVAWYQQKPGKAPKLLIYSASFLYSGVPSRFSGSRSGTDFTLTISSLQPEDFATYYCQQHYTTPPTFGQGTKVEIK
notes: Screening constructs are described as His- and FLAG-tagged IgG1; also called SRP1944-A07
B13: 1944-A07 HC with hUCHT1-LC3 light chain (antibody, V domains shown)
VH: B12 VH
VL: DIQMTQSPSTLSASVGDRVTITCRASQDIRNYLNWYQQKPGKAPKLLIYYTSRLHSGVPSRFSGSGSGTEYTLTISSLQPDDFATYYCQQGNTLPWTFGGGTKVEIK
notes: IgG with an anti-CD3 light chain
B14: 1944-A07 HC with hSP34-LC3 light chain (antibody, V domains shown)
VH: B12 VH
VL: QTVVTQEPSLTVSPGGTVTLTCGSSTGAVTSGYYPNWFQQKPGQAPRGLIGGTKFLAPGTPARFSGSLLGGKAALTLSGVQPEDEAEYYCALWYSNRWVFGGGTQLTVTG
notes: as for B13
B15: Conjugate 1 (2188-D04-Y180/F404-LP1) (antibody, human IgG1, kappa)
heavy: MEVQLVESGGGLVQPGGSLRLSCAASGFNISDYDIHWVRQAPGKGLEWVGGIDPADGSTDYADSVKGRFTISADTSKNTAYLQMNSLRAEDTAVYYCARDYGVYDYWGQGTLVTVSSASTKGPSVFPLAPSSKSTSGGTAALGCLVKDYFPEPVTVSWNSGALTSGVHTFPAVLQSSGLSLSSVVTVPSSSLGTQTYICNVNHKPSNTKVDKKVEPKSCDKTHTCPPCPAPELLGGPSVFLFPPKPKDTLMISRTPEVTCVVVDVSHEDPEVKFNWYVDGVEVHNAKTKPREEQYNSTYRVVSVLTVLHQDWLNGKEYKCKVSNKALPAPIEKTISKAKGQPREPQVYTLPPSREEMTKNQVSLTCLVKGFYPSDIAVEWESNGQPENNYKTTPPVLDSDGSFLYSKLTVDKSRWQQGNVFSCSVMHEALHNHYTQKSLSLSPGK
light: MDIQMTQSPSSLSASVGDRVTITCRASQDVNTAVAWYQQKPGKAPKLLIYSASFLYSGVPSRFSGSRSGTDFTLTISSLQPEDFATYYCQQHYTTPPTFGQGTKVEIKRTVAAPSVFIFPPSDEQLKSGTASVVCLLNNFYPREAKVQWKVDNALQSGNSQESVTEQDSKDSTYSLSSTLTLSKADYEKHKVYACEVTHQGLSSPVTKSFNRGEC
modifications: pAMF at HC-Y180 and HC-F404 (the * of the entry), conjugated to LP1 (DBCO-Valcit-pAB-hemiasterlin)
B16: Conjugate 6 (2188-D04-Y180/F404-LP10) (antibody, human IgG1, kappa)
heavy: B15 heavy
light: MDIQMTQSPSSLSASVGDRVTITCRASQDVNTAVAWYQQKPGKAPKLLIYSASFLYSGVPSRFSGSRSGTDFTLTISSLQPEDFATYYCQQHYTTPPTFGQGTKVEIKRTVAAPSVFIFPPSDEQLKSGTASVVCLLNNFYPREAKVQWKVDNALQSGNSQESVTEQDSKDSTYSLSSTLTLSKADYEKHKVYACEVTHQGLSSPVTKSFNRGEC
modifications: pAMF at HC-Y180 and HC-F404 (the * of the entry), conjugated to LP10 (DBCO-PEG4-GGFG-aminol-Dxd)
B17: Conjugate 4 (2188-D04-Y180/F404/K42/E161-LP1) (antibody, human IgG1, kappa)
heavy: B15 heavy
light: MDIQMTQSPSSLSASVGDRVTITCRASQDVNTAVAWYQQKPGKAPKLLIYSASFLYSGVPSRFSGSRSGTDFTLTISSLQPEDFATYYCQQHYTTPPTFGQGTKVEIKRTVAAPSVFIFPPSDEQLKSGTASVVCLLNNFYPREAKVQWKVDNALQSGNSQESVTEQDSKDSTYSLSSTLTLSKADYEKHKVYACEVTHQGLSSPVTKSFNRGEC
modifications: pAMF in place of LC-K42 and LC-E161 (Kabat numbering), conjugated to LP1; pAMF at HC-Y180 and HC-F404 (the * of the entry), conjugated to LP1
B18: Conjugate 7 (2188-D04-Y180/F404/K42/E161-LP10) (antibody, human IgG1, kappa)
heavy: B15 heavy
light: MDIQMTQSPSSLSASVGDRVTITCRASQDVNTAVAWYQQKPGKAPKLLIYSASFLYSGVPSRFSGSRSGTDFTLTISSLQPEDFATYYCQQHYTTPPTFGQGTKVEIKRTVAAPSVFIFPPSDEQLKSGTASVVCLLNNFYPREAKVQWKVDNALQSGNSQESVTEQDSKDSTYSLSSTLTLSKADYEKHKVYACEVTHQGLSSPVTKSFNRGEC
modifications: pAMF in place of LC-K42 and LC-E161 (Kabat numbering), conjugated to LP10; pAMF at HC-Y180 and HC-F404 (the * of the entry), conjugated to LP10
B19: Conjugate 2 (2188-D04-Y180/F404/K42-LP1) (antibody, human IgG1, kappa)
heavy: B15 heavy
light: MDIQMTQSPSSLSASVGDRVTITCRASQDVNTAVAWYQQKPGAPKLLIYSASFLYSGVPSRFSGSRSGTDFTLTISSLQPEDFATYYCQQHYTTPPTFGQGTKVEIKRTVAAPSVFIFPPSDEQLKSGTASVVCLLNNFYPREAKVQWKVDNALQSGNSQESVTEQDSKDSTYSLSSTLTLSKADYEKHKVYACEVTHQGLSSPVTKSFNRGEC
modifications: pAMF at LC-K42 (the * of the entry), conjugated to LP1; pAMF at HC-Y180 and HC-F404 (the * of the entry), conjugated to LP1
B20: Conjugate 5 (2188-D04-F404-LP8) (antibody, human IgG1, kappa)
heavy: MEVQLVESGGGLVQPGGSLRLSCAASGFNISDYDIHWVRQAPGKGLEWVGGIDPADGSTDYADSVKGRFTISADTSKNTAYLQMNSLRAEDTAVYYCARDYGVYDYWGQGTLVTVSSASTKGPSVFPLAPSSKSTSGGTAALGCLVKDYFPEPVTVSWNSGALTSGVHTFPAVLQSSGLYSLSSVVTVPSSSLGTQTYICNVNHKPSNTKVDKKVEPKSCDKTHTCPPCPAPELLGGPSVFLFPPKPKDTLMISRTPEVTCVVVDVSHEDPEVKFNWYVDGVEVHNAKTKPREEQYNSTYRVVSVLTVLHQDWLNGKEYKCKVSNKALPAPIEKTISKAKGQPREPQVYTLPPSREEMTKNQVSLTCLVKGFYPSDIAVEWESNGQPENNYKTTPPVLDSDGSFLYSKLTVDKSRWQQGNVFSCSVMHEALHNHYTQKSLSLSPGK
light: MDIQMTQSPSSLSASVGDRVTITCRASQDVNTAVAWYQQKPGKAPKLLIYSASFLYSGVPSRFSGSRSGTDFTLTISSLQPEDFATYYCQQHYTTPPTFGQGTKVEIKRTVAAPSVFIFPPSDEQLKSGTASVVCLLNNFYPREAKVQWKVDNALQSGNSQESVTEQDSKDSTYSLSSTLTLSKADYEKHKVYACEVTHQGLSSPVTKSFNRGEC
modifications: pAMF at HC-F404 (the * of the entry), conjugated to LP8 (DBCO-GGG-EDA PNU)
B21: Conjugate 5 (D04-F404-LP8) (antibody, human IgG1, kappa)
heavy: B20 heavy
light: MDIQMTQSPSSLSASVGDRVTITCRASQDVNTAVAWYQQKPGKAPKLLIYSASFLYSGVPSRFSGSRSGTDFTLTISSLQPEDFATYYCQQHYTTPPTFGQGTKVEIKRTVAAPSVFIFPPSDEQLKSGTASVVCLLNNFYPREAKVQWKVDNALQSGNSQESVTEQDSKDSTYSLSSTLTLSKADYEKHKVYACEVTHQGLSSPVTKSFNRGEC
modifications: pAMF at F404 (EU), linked to LP8
B22: Conjugate 45 (D04-F404-LP28) (antibody, human IgG1, kappa)
heavy: B20 heavy
light: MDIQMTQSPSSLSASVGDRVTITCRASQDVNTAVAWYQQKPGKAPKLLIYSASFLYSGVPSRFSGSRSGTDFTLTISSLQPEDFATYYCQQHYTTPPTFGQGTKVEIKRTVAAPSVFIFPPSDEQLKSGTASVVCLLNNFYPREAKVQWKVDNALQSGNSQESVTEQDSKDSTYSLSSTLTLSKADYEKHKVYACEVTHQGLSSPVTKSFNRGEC
modifications: pAMF at F404 (EU), linked to LP28
B23: Conjugate 42 (D04-F404-LP25) (antibody, human IgG1, kappa)
heavy: B20 heavy
light: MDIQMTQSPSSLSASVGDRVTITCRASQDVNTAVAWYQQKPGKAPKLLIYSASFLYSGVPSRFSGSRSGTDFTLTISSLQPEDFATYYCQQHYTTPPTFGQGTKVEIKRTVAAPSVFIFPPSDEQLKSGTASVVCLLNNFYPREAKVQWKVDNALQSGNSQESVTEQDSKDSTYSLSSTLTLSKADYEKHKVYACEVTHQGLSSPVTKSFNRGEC
modifications: pAMF at F404 (EU), linked to LP25
B24: Conjugate 43 (D04-F404-LP26) (antibody, human IgG1, kappa)
heavy: B20 heavy
light: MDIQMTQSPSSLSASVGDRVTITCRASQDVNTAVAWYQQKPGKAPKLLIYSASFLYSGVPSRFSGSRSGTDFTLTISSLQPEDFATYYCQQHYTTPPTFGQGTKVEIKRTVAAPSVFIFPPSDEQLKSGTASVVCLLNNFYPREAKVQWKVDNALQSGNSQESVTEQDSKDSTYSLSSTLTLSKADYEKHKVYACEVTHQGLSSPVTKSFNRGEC
modifications: pAMF at F404 (EU), linked to LP26
B25: Conjugate 44 (D04-F404-LP27) (antibody, human IgG1, kappa)
heavy: B20 heavy
light: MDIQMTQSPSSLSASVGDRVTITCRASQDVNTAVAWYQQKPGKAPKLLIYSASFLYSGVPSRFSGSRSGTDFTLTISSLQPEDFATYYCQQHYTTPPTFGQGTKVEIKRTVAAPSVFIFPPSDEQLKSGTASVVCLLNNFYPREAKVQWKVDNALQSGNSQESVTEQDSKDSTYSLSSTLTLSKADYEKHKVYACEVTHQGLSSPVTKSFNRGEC
modifications: pAMF at F404 (EU), linked to LP27
B26: Conjugate 41 (D04-F404-LP24) (antibody, human IgG1, kappa)
heavy: B20 heavy
light: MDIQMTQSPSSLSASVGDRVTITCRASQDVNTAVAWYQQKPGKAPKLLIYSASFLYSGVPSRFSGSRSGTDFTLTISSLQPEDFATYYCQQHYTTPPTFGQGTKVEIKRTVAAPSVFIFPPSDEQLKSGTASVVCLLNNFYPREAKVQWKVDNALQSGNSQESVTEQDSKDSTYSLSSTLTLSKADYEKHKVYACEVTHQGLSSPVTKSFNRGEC
modifications: pAMF at F404 (EU), linked to LP24
B27: 1944-A07 HC co-expressed with hUCHT1-LC3 light chain (antibody, V domains shown)
VH: B12 VH
VL: B13 VL
notes: Only variable domains are tied to this pairing
B28: 1944-A07 HC co-expressed with hSP34-LC3 light chain (antibody, IgG1, V domains shown)
VH: B12 VH
VL: B14 VL
notes: as for B27

Each binder was assayed against T1, human ROR1 (hROR1) (human, UniProt Q01973 30-937) (assay: flow cytometry, HCT116-hROR1 cells; NSB = non-saturating binding).
T1 construct: On HCT116-hROR1 transfectants, Mino cells or Ntera-2 cells, as the assay of each row says; also called receptor tyrosine kinase like orphan receptor 1

Binder | binding result
B1 | binds
B2 | binds
B3 | binds
B4 | binds
B5 | binds
B6 | binds
B7 | binds
B8 | binds
B9 | binds
B10 | binds
B11 | binds

Each binder was assayed against T2, human ROR1 Frizzled domain (Fz, residues 165-305) with C-terminal HIS6 tag (human, UniProt Q01973 165-305) (assay: SPR (Biacore T200), IgG captured by anti-human Fc, ROR1 Fz as analyte, 1:1 Langmuir fit).
T2 construct: Made in HEK293 cells and purified (Acro Biosystems); also called ROR1 Fz; hROR1-Fz
Method: The data was fit with the Biacore™ T200 Evaluation software, using a 1-1 Langmuir binding model. KD (affinity, nM) was determined as a ratio of the kinetic rate constants calculated from the fits of the association and dissociation phases.

Binder | Kd [nM] | koff [s⁻¹] | kon [M⁻¹ s⁻¹]
B12 | 9.59 | 0.029 | 3.02e+06
B13 | 64.1 | 0.119 | 1.85e+06
B14 | 6.35 | 0.00228 | 360000

Each binder was assayed against T1, human ROR1 (hROR1) (assay: cell-based or functional assay).

Binder | cell killing on ROR1 positive NTERA-2 cells, EC50 [nM] | cell killing on ROR1 positive NTERA-2 cells, Span [%]
B15 | > 10 | < 20
B16 | 0.08 | 53
B17 | 0.022 | 63
B18 | 0.048 | 94
B19 | 0.082 | 49
B20 | 0.0101 | 83

The binders below were run against T3, receptor tyrosine kinase orphan receptor 1 (ROR1) on Ntera-2 cells (human, UniProt Q01973 30-937) (assay: cell-based or functional assay).

Binder | cell killing EC50, NTERA-2 cells [nM] | cell killing Span, NTERA-2 cells [%]
B21 | 0.021 | 85

Biological target: T3, receptor tyrosine kinase orphan …
Test: cell-based or functional assay
Remark: another data set of the same source

Binder | cell killing EC50, NTERA-2 cells [nM] | cell killing Span, NTERA-2 cells [%]
B22 | > 10 | < 10
B21 | 0.013 | 83
B23 | 0.075 | 58
B24 | > 10 | < 10
B25 | 0.017 | 80
B26 | > 10 | < 10

What follows are binders tested against ROR1 (recombinant protein coated on the ELISA plate, Example 11) (UniProt Q01973 30-403, limits assumed) (assay: ELISA: ROR1 coated on the plate, antibody titrated 3-fold from 5 ug/mL, HRP anti-human Fc, chemiluminescence (ELISA RLU)).
Excerpt: The anti-ROR1 lead antibodies were discovered from a Fab ribosome display library that contained CDR H1, H2, and H3 diversity and utilized a constant LC (trastuzumab LC). In this example, the HCs of the lead antibodies were co-expressed with trastuzumab LC or different LCs derived from anti-CD3 antibodies: hOKT3-LC1, hSP34-LC3, hUCHT1-LC3 to determine if the anti-ROR1 HC leads would retain binding to ROR1 when assembled with anti-CD3 LCs. […] The antibodies were then purified and tested for ROR1 binding by ELISA. The ELISA assay was carried out as follows. Briefly, 2 μg/mL of ROR1 was coated to a 384-well polystyrene plate for 1 hr at 30° C. in 0.1 M bicarbonate pH8.9 buffer before it was washed and blocked with 2% BSA in PBST (PBS, 0.1% Tween20) for 1 hr. Antibody variants were diluted to 5 μg/mL and further serially diluted 3-fold before 30 μL was applied to the ELISA plates for binding ([…] Antibody binding was detected via HRP-conjugated anti-human Fc antibodies (Jackson Immunoresearch) and detection with SuperSignal ELISA Pico Chemiluminescent Substrate (Pierce).

Binder | EC50 (read off the curve) [µg/mL]
B12 | ~0.02
B27 | ~0.02
B28 | ~0.05
